# Data: the Human Domainome abundance scans (Beltran et al. 2025)
# ± gives the uncertainty stated by the source.
# B1: FERM and PDZ domain-containing protein 4, residues 75 to 154; numbered along this chain, Q14CM0 (parent)
# chain: APRKVEMRRDPVLGFGFVAGSEKPVVVRSVTPGGPSEGKLIPGDQIVMINDEPVSAAPRERVIDLVRSCKESILLTVIQP
# Variants of: B1
# Assay: abundance fitness (aPCA) (normalised: wild type 0, dead -1); higher = more abundant; growth selection in yeast, the domain comes from the species named
# Settings: Homo sapiens
row,Variant,abundance fitness
1,P32H,-0.046 ± 0.028
2,P32G,-0.098 ± 0.028
3,P32K,-0.027 ± 0.029
4,P32N,-0.058 ± 0.029
5,P32I,-0.08 ± 0.031
6,P32A,-0.029 ± 0.026
7,P32S,-0.032 ± 0.024
8,P32R,-0.05 ± 0.024
9,P32V,-0.051 ± 0.025
10,P32L,-0.083 ± 0.023
11,P32Y,-0.136 ± 0.031
12,P32T,-0.036 ± 0.026
13,P32F,-0.206 ± 0.033
14,F15Y,-0.039 ± 0.043
15,F15W,-0.057 ± 0.029
16,V30S,-0.743 ± 0.035
17,V30H,-0.967 ± 0.1
18,V30M,-0.335 ± 0.035
19,V30W,-0.756 ± 0.037
20,V30R,-0.914 ± 0.031
21,V30E,-0.901 ± 0.048
22,V30P,-0.864 ± 0.055
23,V30A,-0.499 ± 0.026
24,V30L,-0.115 ± 0.024

row,Variant,abundance fitness
1,V30K,-0.87 ± 0.056
2,V30Y,-0.521 ± 0.049
3,V30D,-0.804 ± 0.065
4,V30C,-0.102 ± 0.031
5,V30I,-0.081 ± 0.035
6,V30Q,-0.801 ± 0.052
7,V30F,-0.416 ± 0.051
8,V30T,-0.089 ± 0.029
9,G20F,-0.155 ± 0.045
10,G20K,-0.093 ± 0.032
11,G20W,-0.105 ± 0.026
12,G20C,-0.094 ± 0.033
13,G20Y,-0.067 ± 0.04
14,G20T,-0.061 ± 0.029
15,G20L,-0.116 ± 0.025
16,G20Q,-0.03 ± 0.033
17,G20H,-0.029 ± 0.047
18,G20D,0.017 ± 0.032
19,G20E,0.01 ± 0.027
20,G20N,-0.089 ± 0.047
21,G20S,-0.002 ± 0.025
22,G20I,-0.051 ± 0.05
23,V25D,-0.535 ± 0.048
24,V25L,0.006 ± 0.024

row,Variant,abundance fitness
1,V25W,-0.078 ± 0.028
2,V25K,-0.889 ± 0.068
3,V25Q,-0.373 ± 0.034
4,V25A,-0.052 ± 0.026
5,V25G,-0.467 ± 0.025
6,V25M,0.157 ± 0.046
7,V25S,0 ± 0.026
8,V25E,-0.796 ± 0.047
9,V25Y,-0.144 ± 0.047
10,V25F,-0.127 ± 0.035
11,V25R,-0.326 ± 0.023
12,V25N,-0.23 ± 0.046
13,V25T,0.004 ± 0.031
14,V25C,-0.005 ± 0.032
15,V25I,-0.116 ± 0.036
16,V25H,-0.135 ± 0.043
17,E22L,-0.315 ± 0.028
18,E22K,-0.199 ± 0.035
19,E22C,-0.074 ± 0.034
20,E22Y,-0.012 ± 0.044
21,E22T,-0.156 ± 0.034
22,E22Q,-0.029 ± 0.035
23,E22P,-0.979 ± 0.086
24,E22I,-0.336 ± 0.05

row,Variant,abundance fitness
1,E22G,-0.026 ± 0.021
2,E22S,-0.126 ± 0.025
3,E22N,-0.125 ± 0.048
4,E22H,-0.202 ± 0.051
5,E22V,-0.066 ± 0.024
6,E22W,-0.305 ± 0.029
7,E22A,-0.075 ± 0.024
8,E22M,-0.22 ± 0.035
9,V18L,-0.142 ± 0.025
10,V18T,-0.092 ± 0.028
11,V18C,-0.041 ± 0.032
12,V18F,-0.255 ± 0.044
13,V18G,-0.112 ± 0.02
14,V18D,-0.055 ± 0.035
15,V18P,-1.03 ± 0.073
16,V18M,-0.075 ± 0.034
17,V18S,-0.095 ± 0.027
18,V18E,-0.019 ± 0.025
19,V18W,-0.38 ± 0.03
20,V18K,-0.118 ± 0.032
21,V18H,-0.048 ± 0.048
22,V18A,-0.058 ± 0.023
23,V18N,-0.104 ± 0.049
24,V18Y,-0.078 ± 0.046

row,Variant,abundance fitness
1,V18I,-0.01 ± 0.038
2,V26G,-0.446 ± 0.023
3,V26E,-0.036 ± 0.026
4,V26S,-0.116 ± 0.025
5,V26Y,-0.123 ± 0.043
6,V26H,-0.159 ± 0.044
7,V26L,-0.038 ± 0.024
8,V26F,-0.123 ± 0.043
9,V26I,-0.025 ± 0.043
10,V26M,-0.012 ± 0.032
11,V26T,0.008 ± 0.028
12,V26D,-0.135 ± 0.039
13,V26Q,-0.011 ± 0.03
14,V26A,-0.113 ± 0.025
15,V26C,-0.07 ± 0.033
16,V26K,-0.048 ± 0.028
17,V26P,-0.702 ± 0.042
18,V26W,-0.379 ± 0.029
19,S21L,-0.049 ± 0.026
20,S21V,-0.25 ± 0.026
21,S21G,0.043 ± 0.022
22,S21F,-0.021 ± 0.037
23,S21K,-0.009 ± 0.033
24,S21P,-0.169 ± 0.031

row,Variant,abundance fitness
1,S21D,-0.003 ± 0.036
2,S21W,-0.088 ± 0.027
3,S21H,-0.028 ± 0.048
4,S21I,-0.234 ± 0.059
5,S21R,-0.082 ± 0.022
6,S21A,0.005 ± 0.025
7,S21T,-0.12 ± 0.031
8,S21C,-0.047 ± 0.033
9,S21N,-0.002 ± 0.047
10,S21M,-0.033 ± 0.034
11,V27I,-0.07 ± 0.039
12,V27C,-0.282 ± 0.038
13,V27H,-0.878 ± 0.14
14,V27Y,-1.02 ± 0.17
15,V27A,-0.591 ± 0.033
16,V27E,-0.725 ± 0.043
17,V27T,-0.705 ± 0.053
18,V27M,-0.799 ± 0.063
19,V27L,-0.584 ± 0.031
20,V27G,-0.938 ± 0.032
21,V27F,-0.79 ± 0.092
22,V27P,-0.764 ± 0.058
23,V27W,-1.1 ± 0.068
24,V27R,-0.958 ± 0.037

row,Variant,abundance fitness
1,V27N,-0.851 ± 0.099
2,V27D,-0.802 ± 0.065
3,V27K,-0.916 ± 0.073
4,V27S,-0.947 ± 0.053
5,P24G,-0.329 ± 0.022
6,P24C,-0.51 ± 0.045
7,P24S,-0.48 ± 0.031
8,P24L,-0.77 ± 0.037
9,P24V,-0.725 ± 0.034
10,P24D,-0.433 ± 0.05
11,P24R,-0.572 ± 0.025
12,P24H,-0.501 ± 0.05
13,P24K,-0.64 ± 0.049
14,P24A,-0.448 ± 0.029
15,P24W,-0.947 ± 0.049
16,P24I,-0.777 ± 0.08
17,P24N,-0.333 ± 0.054
18,P24M,-0.53 ± 0.042
19,P24E,-0.51 ± 0.036
20,P24Q,-0.472 ± 0.041
21,P24F,-0.686 ± 0.076
22,P24Y,-0.691 ± 0.081
23,P24T,-0.471 ± 0.037
